Experimental findings from publication PMC6744468, “Selective autophagy maintains centrosome integrity and accurate mitosis by turnover of centriolar satellites” (Nature Communications, 2019) are described below.

Holding throughout (settings): both partners purified
The target in assay [1] is LC3B H27Y mutant (ITC sample) (human, UniProt Q9GZQ8 1-120, H27Y). In words: ITC; PCM1 LIR peptide 0.4 mM titrated into 0.025 mM LC3 or GABARAP protein in 21 steps; 25 °C; 50 mM Tris-HCl pH 7.4, 100 mM NaCl; one-site binding model. For orientation: ITC needs no label: the signal is the heat of the interaction.
The target in assay [2] is LC3B wild type (ITC sample) (human, UniProt Q9GZQ8 1-120). The assay is described as above.
The target of assay [3] is T1, GABARAP wild type (ITC sample) (human, UniProt O95166 1-117).
T1 construct: GABARAP, human ATG8 protein; also called GABARAP-wt; GABARAP WT
T1 sequence (O95166 whole entry): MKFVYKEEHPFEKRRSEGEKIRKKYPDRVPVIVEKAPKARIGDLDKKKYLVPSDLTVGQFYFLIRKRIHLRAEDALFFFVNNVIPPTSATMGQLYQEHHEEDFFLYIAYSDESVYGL
The assay is described as above.

The target in assay [4] is T2, GABARAPL2 wild type (ITC sample) (human, UniProt P60520 1-117).
T2 construct: GABARAPL2, human ATG8 protein; also called GABARAPL2 WT
T2 sequence (P60520 whole entry): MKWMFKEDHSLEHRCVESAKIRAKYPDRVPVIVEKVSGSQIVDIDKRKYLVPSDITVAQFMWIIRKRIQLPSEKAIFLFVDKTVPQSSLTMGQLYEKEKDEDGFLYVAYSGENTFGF
The assay is described as above.

Assay [5] concerns the target T3, GABARAP Y25H mutant (ITC sample) (human, UniProt O95166 1-117, Y25H).
T3 construct: GABARAP, human ATG8 protein, with Y25H
Described as above.

The target of another assay is LC3B (ITC sample) (human, UniProt Q9GZQ8 1-120). In words: ITC; 0.4 mM PCM1 LIR peptide titrated into 0.025 mM LC3 and GABARAP proteins in 21 steps, 25 °C, 50 mM Tris-HCl pH 7.4, 100 mM NaCl, one-site binding model.
The target in a further assay is T4, GABARAPL2 (ITC sample) (human, UniProt P60520 1-117).
T4 construct: GABARAPL2, human, purified protein for ITC
T4 sequence (P60520 whole entry): as above
The assay is described as above.

Assay [6] addresses T5, GABARAP Y25H (ITC sample) (human, UniProt O95166 1-117, Y25 in GABARAP to H).
T5 construct: GABARAP, human, with Y25H, purified protein for ITC; also called mutation of invariant Y25 in GABARAP to H
The description is as above.

For the next assay, the target named is T6, GABARAP (ITC sample) (human, UniProt O95166 1-117).
T6 construct: GABARAP, human, purified protein for ITC
T6 sequence (O95166 whole entry): as the sequence (O95166 whole entry) above
The description is as above.

Another assay deals with LC3B H27Y (ITC sample) (human, UniProt Q9GZQ8 1-120, H27 in LC3B to Y). The description is as above.

T3 sequence (O95166 whole entry Y25H): as the sequence (O95166 whole entry) above, with Y25H counted along it
T5 sequence (O95166 whole entry Y25H): as the sequence (O95166 whole entry) above, with Y25H counted along it

B1: Human PCM1 LIR-contained peptide (residues 1958-1976) (peptide)
peptide: SDEEDFVKVEDLPLKLTIY
notes: pericentriolar material 1 (PCM1), human, residues 1958-1976; core LIR FVKV; also called PCM1 LIR peptide; PCM LIR peptide; source: synthetic peptide, bought: GenScript Inc
What is called Kd is the free concentration of one partner at which half of the binding sites on the other are occupied at equilibrium, for simple one-to-one binding. A lower Kd goes with a tighter complex. By stoichiometry N is commonly meant a count of units in the complex or per binding partner. As for B1, the Ka in [1] is 40200 M⁻¹; in assay [2], 13200 M⁻¹; in [3], 157000 M⁻¹; in assay [4] it was 311000 M⁻¹; in assay [5], 17900 M⁻¹. Also, the figures for the Kd in [1] and in assay [5] were 25 µM and 56 µM, respectively. Further, the “stoichiometry N” value in assay [1] turned out to be 1; in assay [2], 1; in assay [3] it was 0.94 ± 0.04; in assay [4], 0.98 ± 0.02; in assay [5], 1.

B2: Human PCM1 LIR-contained peptide (peptide)
peptide: SDEEDFVKVEDLPLKLTIY
notes: PCM1, human, residues 1958-1976 with the core LIR FVKV; also called PCM1 LIR peptide; PCM LIR peptide; source: synthetic peptide, bought: GenScript Inc
Consider B2, for which the results for the Kd in the assay with LC3B (ITC sample), with GABARAPL2 (ITC sample) and in the assay with GABARAP (ITC sample) were 76 µM, 3.2 µM and 6.4 µM, respectively. The binding result (in assay [6]; with LC3B H27Y (ITC sample)) was “binds” in each case.
